Measurements from the DeepSol protein solubility set.

Experiment: soluble on expression in E. coli; label from the status in PepcDB or PDB records

Sequence | soluble on expression in E. coli
MSLSSKRDIEANTDLNSITYIPTFPEPFERDNSHTTASFVSIQIRLLVASVTEENFLDTEHQIYYLLQRGSFSVYISYWKLLIQLFVNEFEAQQQKRDLNLPFRFDFSNLVHRLLYNLAQELITRTPDTIEKVKELALPLSGKYPIRPLFLSFLNKDNESDSAIIEALNPEVHPIFTTLKDLHRTNMSVSNITQNLFAVENKPNFLTMLSEFLKPLQGETLNDWIALILSEILAPGSQTSNQPSQPWIVQVPNVDVREVIEATEMGTKVNGIIKSLGTNNVNWNRVFNLMSTKFFLNKPVNATLSSLNYLFCILNSGPLVDQFFACDWSLYFKLRLSFLMYQWNYNSECLDLSSLPNIKKINKSIPLTKKSQLSLISVGKLNIELFLSRDEISKNPLFSSFHASFSEAYNNVPEYLAAVLISESKYFSLLVDNKSIIDELLISLVIKTYENNVIAFKELLKLVSKQKVIEVSRGIIASQNAQTINLVQALHDLGILDEVFEKLPIRDSLKLSPTAMHLGYLKFSEYIERNITLKTFVPTLDFIEAQTNIDELDPALKSVKLLNLHSLHSLIYRTANLKLSADERVALNNVIFKALISFPRLINYGYGHDDAIVANGDHAPIPQDVEKKMQTYLQKMYNKEMAIKDIVDILRKLRDSDDSNDQDIFCCIIHAVIAETTFFKEYPLEALATTSVLFGSMILFDLLRGFVLDVAFQIIYTFASESPDSKMFKFAVQALYAFRMRLNEYSPFCKRLLDEIPGLQTQPQIQQILTESAANPNVSEGHHHHHH | soluble
MSLSVEQANLILNHLPMEITFVNKEDIFQYYNDNTPADEMIFKRTPSQVGRNVELCHPPKYLDKVKTIMKGLREGSKDKYEMWFKSESRGKFVHITYAAVHDEDGEFQGVLEYVQDIQPYREIDTDYFRGLEEGHHHHHH | soluble
MSLTADTKRPLTLRDVSEASGVSEMTVSRVLRNRGDVSDATRARVLAAAKELGYVPNKIAGALASNRVNLVAVIIPSLSNMVFPEVLTGINQVLEDTELQPVVGVTDYLPEKEEKVLYEMLSWRPSGVIIAGLEHSEAARAMLDAAGIPVVEIMDSDGKPVDAMVGISHRRAGREMAQAILKAGYRRIGFMGTKMPLDYRARKRFEGFTEVLGKNGVEIEDREFYSGGSALAKGREMTQAMLERSPDLDFLYYSNDMIAAGGLLYLLEQGIDIPGQIGLAGFNNVELLQGLPRKLATMDACRLEIGRKAAEIIAKRLEDPEAEIETRITLEPKISYGDTLKREGHHHHHH | soluble
MSLTADVDYPLLAKMRSASRRALTSLVDWFGTMAQDLDHQGLTTLAGELVSVARLLDREAVVTRYLTVPAEDATPRIRLIERLVSGKVGAPTLEVLRTAVSKRWSANSDLIDAIEHVSRQALLELAERAGQVDEVEDQLFRFSRILDVQPRLAILLGDCAVPAEGRVRLLRKVLERADSTVNPVVVALLSHTVELLRGQAVEEAVLFLAEVAVARRGEIVAQVGAAAELSDAQRTRLTEVLSRIYGHPVTVQLHIDAALLGGLSIAVGDEVIDGTLSSRLAAAEARLPDEGHHHHHH | soluble
MSLTAIHRPTWVSVDLDAAAHNLQEIREWTKAKKVYAVLKADGYGLGAIPLAKAFQETASADALIVSNLDEALELRQADLTLPIWVLGAWDYSDLKLFIDHDIVITIPSLAWLQNLPDFEGTLKVSLAIDTGMTRIGFDKADEISAAKKIIDKNPQLDLFSVYTHFATADEAGEKSKAYFEEQLRRWQELTINQGFDPSLFSMANSATCIWHHDDPRISFAAIRPGQLISGVNVSNGELKMPPNLHLERIFSVCSEIADVRFVKKDQSLSYGASERMPEDGYVATLPFGYNDGWLRRMQKSSVIINGKRMPIIGRITMDQTMVKLDRKYPIGTRVTLIGKDGGEQITVEEVANYSHTIVDEIQTTLAPRIKRIYTGDLAEVIGANYGEGHHHHHH | soluble
MSLTARIGVVTFPGSLDDRDTQRAIKLAGAEPVALWHKDKDLKQVDAVVLPGGFSYGDYLRAGAISRFSPVMETVIEQAKSGMPVLGICNGFQILTEAHLLPGAMLGNNHLHFICRDQKLRVENADTAWTSDYEAGQEIHIPLKNMDGRYVADERTLDMLEAEGRVAFRYVVGGAAADGYGNPNGSLRDIAGITNEAGNVVGLMPHPEHAVEPLIGTGRTDGLPFFTSILKKLVNAEGHHHHHH | soluble
MSLTDLDRVGLPVFQAVRPMGRSLSVSQGKGMTSMAARVSAMMEAVEIWHAEQDLPTTLRATIRSLGTRRAMDPNQLLMPGRDKVCEDLPIVWCPSLNLLDGADVLVPRDAANLDFTRAPDPPMLARSTTGLAGGNTRDEARASAIAEVIERACQREFQRLPPASRAQRRLDPTCLASAHRGLADPIERIRSAGLHLDIFDMTNRFDVPAIRAVIYETTAGKPVAWPCLGHGAHLDPVTAVVRALTEAAQARLTGISGNRDDISPGHYAGADMSNWVLRAMNGMDMSGTRRGLRHHDASGDSPAADVAAMIARITAHDADPLLEVDLSRPEIGVPVVKIIAPRIAYLASREGHHHHHH | not soluble
MSLTDPAPEPEPPVEGQWTALTASPDTWDETKRADISYQLLLYSFADSDGDGYGDLNGVTQKLDYLNQLGVKALWLSPIHPCMSYHGYDVTDYTKVNPQLGTESDFDRLVTEAHNRGIKIYLDYVMNHTGTAHPWFTEASSSSESPYRNYYSFSEDPKTDIAAGKIAMITQEGAAGYNAAEWFQVSDETAAVKGLLKFTLDWSNAPSPILVVSTGTKADEDNPDTGTDNAKYLYYGEDICKKFYDKGNNIYELTVDFESTWGLLIRTSNASFWPSGTKYGASSSSEKLALNKDFKLTNAGNPANIMFDSQQITYFHSHFCTDWFADLNYGPVDQAGESPAYQAIADAAKGWIARGVDGLRLDAVKHIYHSETSEENPRFLKMFYEDMNAYYKQKGHTDDFYMIGEVLSEYDKVAPYYKGLPALFEFSFWYRLEWGINNSTGCYFAKDILSYQQKYANYRSDYIEATKLSNHDEDRTSSKLGKSADKCKLAAAVLLTSAGHPYIYYGEELGLYGTKDNGDEYVRSPMLWGDSYTTNYTDKTDATVSKNVKTVADQQADTHSLLNIYFSLTRLRNTYPALAEGNMTKHSVYNEGHHHHHH | not soluble
MSLTFKLRETIKINHKKVQRIMQWLGLKGKCKTQKYRSYQGEVGHIADNLLQRDFTATQPNEKWTTDITEFKCAEGKLYLSPIKDLFNNEIIAYDLARSPNFEQITRMMKQAVARLEGAKPILHSDQGWQYQMIGYQNILRENGIQQSMSRKGNCLYNSAMESFFGRLKTECYYGKRFETFEQLEKTIHEYIHYYNHERIQGKLKGLSPVNYRTQSLNEGHHHHHH | not soluble
MSLTGELHPIFNADALGASHRLHAHTHGDGTKIVGYYNKHLRLGRFTEQTYKSWHAEVDAKASSILNGSGSLLAFYGDHIIEVVDREGKKITLTVNGGIKQVLWHPLAYLDSCLVVLTGQETIEIYELNEPRYEKPTLVLNEPTSQLGISSRVIDITNIAFAPDGLSLYLFSTSEGGDVHVICPLLPSRIKADRAKWARQWNKATALYSTLTKDTPDDAKVATIEYLEFVTQLLQAIEKNGSDGELVIPEHRRRTISQGPYNIHGFPEKLYSAVGTKLTVVPLGESEAHLLLLSFDDSTNILLFPSTEVLMSWTKDLKNAYTLMLVEEFTATGTAFATCDGVAVLGIDSAQRVEIPYLQALEDCIRDCNLAALQDINFTSSICKIPGKFHSVARFNAPGNKGIILVGDHHAKIVPSTEAAKSDTETELDSQPGKEPTYTVCFPNSLEEILNTNKELQRRKHQPLPLVPPALKNEGHHHHHH | soluble
MSLTIPGVVIIGGAHGTLALARSLGVLNVPVYYLTHDSPLPGWSRFVRETIRWAGPHDDGAMAFLREMAEKPGLKGCLLVPSGDGEVQLVSQHREELSALYKIILPEWTNLQWLCEKPLLYKRAAELGVSIPRTYALTSAADIDGLDVMFPVILKPHMGGGNTSIARAKVIRADDREELKAAFVDASGEIGPDNVVVQELIPGGGESQFSYAALWLNGEPIAEFTARRARQYPVDFGYTSTRVEVVDNRQAIEAARKILKSAGHSGLVEVEFKLDGRDGALKLLDVNPRPWSWFGLCSAAGINLGGLLWRVANEGHHHHHH | soluble
MSLTISTQCSKCEKIYDDNKRKICSGKCGHSICESCFDRKSSDICSICNQIDSFGVKCINRSAMEMVEMKKNAFSFSDIWIFKFDPKEHFNGPCSKCNDYSTMLRVCTNSAVQAGLLVKTGENSFDLTPHTTDELLETIILRIKSIGICADCVINNGLKEDVVMMKNIKRLYDIAKALNYLSMFSFSMKQIEREIEEFKNKKNQLRFYNMYYHFVKETYPEIMKWLKNDLVRISAPPCWQVLLKIVSIMTQAAQSLFLKSAERELQISKEKLRDSKGNSEWQKTVDKLENFRDFLEINHVDAEIQPIDMWNFFVLCTTEELDKVTAIINRNLKIQGKSSRETLKEVYYLTRDVRKTLPFQIPERFAGFIDRFIRVLVGENLDEEQALEIQSTT | not soluble
MSLTKDLLSELIQKHRSFNLSYSAYKQLYEGDHAILQQKQKEQYKPDNRLVVNFAKYIVDTFNGYFIGVPVQTSHENKQVSNYLELLDGYNDQDDNNAELSKICSIYGHGYELVFNDENAEVGITYLTPLEGFIVYDDSIRQKPLFAVRYFYNKDGVLEGSYSDASKITYFKDGEKDLEIGESDPHPFDGVPMIEYVENEERQSLLASVVTLINAFNKAISEKANDVEYFADAYLKILGAELDDETLKSLRDTRIINLKDTDAQQLTVEFLQKPDADATQEHLLDRLENLIFRTAMVANISDESFGTASGIALRYRLQAMDNLAKTKERKFMSGMNRRYKLIASYPTSKIGPKDWIGIKYKFTRNLPANLLEESQIAGNLAGIVSEETQVGVLSIVENPQKEIEKKNSDRPTLISRKAGGLNGQDTTTVLEGHHHHHH | not soluble
MSLTKQVYIIHGYRASSTNHWFPWLKKRLLADGVQADILNMPNPLQPRLEDWLDTLSLYQHTLHENTYLVAHSLGCPAILRFLEHLQLRKQLGGIILVSGFAKSLPTLQMLDEFTQGSFDHQKIIESAKHRAVIASKDDQIVPFSFSKDLAQQIDAALYEVQHGGHFLEDEGFTSLPIVYDVLTSYFSKETREGGSHHHHHH | soluble
MSLTLFGKTSRRPGLPRQAAGLALAACALASLPAQAKESDGDRLQGIVEPIVARQPLKLGVTVVHLLDNFYKGIAYGIVDEARRSNVEVVQVAVAGAYGNVQQQFAQLQSFKTLGVDYAVLSPAAYSGYDPVVADLARSGIKTISAGIPVNSDKIAFGVLQDDTLIGKVLGKALCDDGAQGKQVIVVPGAAGLEWPRLRYEGFKEVASACGAKLTPAAFRGEMSLADGMAQTQDLLMRTPDAEYVFTPVTFLGIGAVRAARQANRPVKVLTSAMVKENEAMIREGRLLAVASEPGVIMGRLIVQYAIREHEGLPMPPLDKPTRSVPYPHFNVPITVVDKSNEGHHHHHH | soluble
MSLTLTEVAEFVGVSAMTVSRALRMPEKVNPELRDRIDAAVSQLGYVPNLQARNLASVHSDLILAVVPTFSSPGFLPVSEALQKVLTERGYTMMFMESGHDGQSEQKTFEKMLAYNPAAIIQFNIDTIESCTQLLANVDVPILEIGALNTHPVGMCIGVDYGKAVKQIVTHLADASLKNIALLCTPANNTMFRQLLSGWNTAMLALNRSPHRVVTTHLPSTIATGVNIFKDMMITWGDLDALICTSDEMACGCMMACHSAGIKVPNTVAIASLGGGVLSTVCSPALTTVEFPWHDIGVKAGKALLELLNDKPGEKFIEIPSVLKVRASTAEGHHHHHH | soluble
